Biological target: recombinant human IL-23R/Fc chimera (human) (UniProt Q5VWK5)
Assay: ELISA of conditioned media on coated IL-23R-Fc, anti-p40 detection

recombinant human IL-23R/Fc chimera (human), sequence (Q5VWK5 24-353 limits assumed, change not shown): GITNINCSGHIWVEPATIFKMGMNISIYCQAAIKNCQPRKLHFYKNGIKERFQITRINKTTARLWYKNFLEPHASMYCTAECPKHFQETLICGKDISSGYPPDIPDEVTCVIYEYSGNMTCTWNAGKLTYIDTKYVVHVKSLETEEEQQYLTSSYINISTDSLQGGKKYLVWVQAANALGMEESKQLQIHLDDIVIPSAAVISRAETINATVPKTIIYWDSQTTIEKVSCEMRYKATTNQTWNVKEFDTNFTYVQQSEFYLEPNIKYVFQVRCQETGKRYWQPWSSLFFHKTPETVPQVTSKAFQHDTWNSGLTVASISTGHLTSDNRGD

reduction of binding compared to WT: 50%
Substance: W2 IL-23 cytokine (p19 W2 to G mutant + p40) (from UniProt Q9NPF7 20-189; P29460 23-328) (ligand)

From USRE49026
